Test results published in PMC6325607.

Experiments:
Cys149 (position 149, …) = test: chemical modification; conditions: 25 °C; not stated (10 mM buffers); 10 mM sodium acetate (pH 4-5), 10 mM MES (pH 5.5-6.5), 10 mM Tris/HCl (pH 7-9); Native reduced enzyme at 2.8 uM, with no substrate or NAD+ added. Cofactor occupancy is not stated.
Cys149 = conditions: cited from earlier work
[1] = target: Cys149 (UniProt position 150, …); conditions: cited from earlier work

B1: Glyceraldehyde-3-phosphate dehydrogenase GapA (CbGAPDH) (Citrobacter sp. S-77) (protein)
chain: TIKVGINGFGRIGRIVFRAAQERSDIEIVAINDLLDADYMAYMLKYDSTHGRFNGSVEVKDGHLIVNGKKIRVTAERDPANLKWDEVGVDVVAEATGLFLTDETARKHITAGAKKVVLTGPSKDNTPMFVKGANFDKYEGQDIVSNASCTTNCLAPLAKVINDNFGIIEGLMTTVHATTATQKTVDGPSHKDWRGGRGAAQNIIPSSTGAAKAVGKVLPELNGKLTGMAFRVPTPNVSVVDLTVRLEKAASYEEIKKAIKAASEGPMKGVLGYTEDDVVSTDFNGEVCTSVFDAKAGIALNDNFVKLVSWYDNETGYSNKVLDLIAHISK
Question: Which pKa (Cys149 (position 149, …)) does the source give for B1 here?
Answer: The pKa was 5.82 ± 0.05.

B2: Glyceraldehyde-3-phosphate dehydrogenase (GAPDH) (Geobacillus stearothermophilus (Bacillus stearothermophilus)) (protein)
chain: AVKVGINGFGRIGRNVFRAALKNPDIEVVAVNDLTDANTLAHLLKYDSVHGRLDAEVSVNGNNLVVNGKEIIVKAERDPENLAWGEIGVDIVVESTGRFTKREDAAKHLEAGAKKVIISAPAKNEDITIVMGVNQDKYDPKAHHVISNASCTTNCLAPFAKVLHEQFGIVRGMMTTVHSYTNDQRILDLPHKDLRRARAAAESIIPTTTGAAKAVALVLPELKGKLNGMAMRVPTPNVSVVDLVAELEKEVTVEEVNAALKAAAEGELKGILAYSEEPLVSRDYNGSTVSSTIDALSTMVIDGKMVKVVSWYDNETGYSHRVVDLAAYIASKGL
Question: With B2 as the protein, how does the pKa (Cys149) read?
Answer: Its pKa is 5.92.

B3: Glyceraldehyde-3-phosphate dehydrogenase A (GAPDH) (Escherichia coli) (protein)
chain: TIKVGINGFGRIGRIVFRAAQKRSDIEIVAINDLLDADYMAYMLKYDSTHGRFDGTVEVKDGHLIVNGKKIRVTAERDPANLKWDEVGVDVVAEATGLFLTDETARKHITAGAKKVVMTGPSKDNTPMFVKGANFDKYAGQDIVSNASCTTNCLAPLAKVINDNFGIIEGLMTTVHATTATQKTVDGPSHKDWRGGRGASQNIIPSSTGAAKAVGKVLPELNGKLTGMAFRVPTPNVSVVDLTVRLEKAATYEQIKAAVKAAAEGEMKGVLGYTEDDVVSTDFNGEVCTSVFDAKAGIALNDNFVKLVSWYDNETGYSNKVLDLIAHISK
Question: With B3 as the protein, how does the pKa [1] read?
Answer: Its pKa is 5.70.
